# Reference: a protein production outcome set (Wang et al. 2014)
# Assay: label from the status in PepcDB records
row,Sequence,protein production
1,MTNKVKSKRIAAIDWMRGFVMIIMVLDHVSMAYNKEHLSTDSAASYIIGSPLPAFEFFTRWISHICAPVFVFLAGTALAISVERKLSRGFDSKAIDKDILLRGAFIALLDPTITSFFSGKLIFQVLYAIGIAMMCMAFFRRLSSTQLLIIAMAWILGGELVTAQFWFAGGQEQSIIVALLIGKYSSADLSISYALVPWLSVMILGWVFGRYILDYGDGKVTISPANLLFRLGFTALAAFIAIRYFNDYGNMFLLREDNSWQQWLHVSKYPPSASFIMLELGLMAVILALMIKVEQRIGVRPNGVLLVFGQTSMMFYLVHRIFLTGTATYGGLSDFTNLTNTYIISGVLLLLLFPFCIWYRSFKVKHPDSLWLKYL,failed
2,MTNLTNYHSHCLYCDGRANMEDFIRFAISEGFSSYGISSHAPLPFSTAWTMEWDRMDDYLSEFARLKEKYADKIELAIGLEIDYLNEESHPAIPRFQELPLDYRIGSVHMLYSPQGKVVDIDTPADIFRQLIDAHFEGDLDYVVHLYYKNLLRMVELGGFDILGHADKMHYNASCYRPGLLDEPWYDALVRDYFAEIARHGYIVEINTKSYHDLGTFYPNERYFPLLKELGIRVQVNSDAHYPERINNSRAEALAALKKVGFDTVVEWHGGQWKDMPLLQLEHHHHHH,not failed
3,MTNQHRASFPSPTRGEGRTRTALATLFLSILFLILPALAARAMDIQQVTSPKGITAWLVEDYSVPIVAVRFVFGGGSTQDPVGKEGLTNLMTGLFDEGAGPLDSEAFQVRLDDAGAEMSFEETRDGVYGSMRMLAEQRDEAFDLLRLAVNEPRFDQAPIDRIRAQILSGIIANENDPDTVAQHRWARAVYGDHPYSRSDQGTRQSIAAITKDDLKALHKAVFARGGLHVAVVGAIDAETLKKKLDMVFGDLPQNQALTPVADVEPKLAQRVEVNYDLPQTSLQLAWPGVKRKSADFFPAVLMNEILGGGTFTSRLFAEVREKRGLAYSVNSSLVNQDHADALIVTTGTRSDRAAETLGIVRDVARQLAEEGPTEAELAATKKYLIGAYAITNLDSSSSIAATLVELQLDDLGIDYMQRRAGYINAVTLDQVKAAAKKLLTAEPTIMVVGPPLAGAGKG,failed
4,MTNTLKTSYQKTPYKLGGNGPRNVGVLTEALQNIDDNLESDIYGNGAVIEDFETKIAKILGKQSAVFFPSGTMAQQIALRIWADRKENRRVAYHPLSHLEIHEQDGLKELQQITPLLLGTANQLLTIDDIKSLREPVSSVLIELPQREIGGQLPAFEELEKISEYCHEQGISLHLDGARLWEITPFYQKSAEEICALFDSVYVSFYKGIGGIAGAILAGNDDFVQEAKIWKRRYGGDLISLYPYILSADYYFEKRIGKMAEYFEAAKGLAERFNSCSGVKTVPEVPVSNMFHVYFENSADEIGAILTKIQDETGVGISGYLQEKSADVCAFEVSVGDAFAEIPAKNLELVFRCLEKEL,not failed
5,MTNWLIAYQGEPGAYSEIAALRFGEPLPCESFDDVFSAVTEQKADYAVIPIENSLGGSIHQNYDLLLRRPVVILAETFVKVEHCLLGLPGASVETATKAMSHPQALVQCHNFFATHPQIRAEAAYDTAGSAKMVAESRDKSALAIASKRAGELYGLDILKENLADEEWNITRFFCIAHENNPDISHLKVRPDVARQKTSIVFALPNEQGSLFRALATFALRGIDLTKIESRPSRKKAFEYLFYADFIGHREDQNVHNALENLREFATMVKVLGSYGVVNP,not failed
6,MTNWTEIDEIAKKWIREAGARITQSMHESLTIETKSNPNDLVTNIDKETEKFFIDRIQETFPGHRILGEEGQGDKIHSLEGVVWIIDPIDGTMNFVHQQRNFAISIGIFENGEGKIGLIYDVVHDELYHAFSGRGAYMNETKLAPLKETVIEEAILAINATWVTENRRIDQSVLAPLVKRVRGTRSYGSAALELANVAAGRIDAYITMRLAPWDYAAGCVLLNEVGGTYTTIEGEPFTFLENHSVLAGNPSIHKTIFEEYLHARK,failed
7,MTPAARLSAAIELIDTIERDRVPAAKALKEWGTAHRFAGSGDRAAIAGLVWDVLRRYASSAFLMDADTARARLIGMLRLERDMDAATMAALFDGSRFAPAPLTEAEQAALSHRSLRDAPAAIAGDYPEWLDPHLAKVFGEDRAAEAAAMASRAPLDLRVNTLKSNRDKVLRALAHLHAKPTPWSATGLRIELSADARNPGIQAEEDFIKGAVEVQDEGSQLAAQFTAAKPGEQVIDLCAGAGGKTLALAAMMQGKGRLIATDSDKRQLAPIHERLSRAGVHNADVRTPKGEADPLADISATADLVVIDAPCTGTGTWRRNPDAKWRMRPGALEIRLRDQAEVLERAVPLVKLGGRIAYITCSVLAEENGEQVRAFIGRHPEFAVVPPEQIASVLWDKAEDFAKAALQSPEGWLMTPRRTGTDGFFVSVLKKTA,failed
8,MTPEALSFWTQADKPFLFLAACIELTNALAYGPGYVCGLPCSWDGSCSGAQHLCAATRSEDAWKVNLIGNDEVHDLYTIVGNAAKQSMARDTDPMVSTILAYEGDWRKVFKRNTMTTFYGSKGFGMAQQHMDDLMEPLSREVMQKKRAKHPFGQTRKEHHAASRLLAAHAAAAIKGEIPLAIKAMEFIQKLSAMMAHEGKPLEWTTPIGLPWSNRYHDPVTERVNLWMHDHGVRRPFRPVVADGYKKTINKNHSVNGSAPNFVHACDAAHLLRTVNAARAEGITQFALVHDSFGSLPSHAARFRQIIREEFVRMYEEHDVLTEVLEQAKCDLDEHNDKLSALVDMRADLTGKLNIKEVLNAEYAFAYPKLSEPDTKGEYADGKYKTEGTATEDYTERFQEEIQKVADDNFPGKKNVHLPWKETKEGDIAFIFKNPKKKPILTDSRGKPLKEGTVIRGGSKIRIAGVIAAWEKGAKRGVSLWPDAVRVIKLSEGFDANAAFGAAEDGFNADDYEPTNFGNDGEDADNDADDAEAGDDAFKLLEHHHHHH,not failed
9,MTPELNLKSLGAKTPYIFEYNSQLLEAFPNPNPNLDPLITLECKEFTSLCPITSQPDFGVIFIRYIPKDKMVESKSLKLYLFSYRNHGSFHESCINTILLDLVRLLEPKYLEVYGDFASRGGIAIKPFVNYAIKEYQDFKEKRLLNAK,failed
10,MTPETNETLKLIGSDKVQGTAVYGPDGEKIGSIERVMIEKVSGRVSYAVLSFGGFLGIGDDHYPLPWPALKYNVELGGYQVMVTVDQLERAPKYGPGSEWDWRGARKVDDYYGVALT,not failed
11,MTPGEVRRLYFIIRTFLSYGLDELIPKMRITLPLRLWRYSLFWMPNRHKDKLLGERLRLALQELGPVWIKFGQMLSTRRDLFPPHIADQLALLQDKVAPFDGKLAKQQIEAAMGGLPVEAWFDDFEIKPLASASIAQVHTARLKSNGKEVVIKVIRPDILPVIKADLKLIYRLARWVPRLLPDGRRLRPTEVVREYEKTLIDELNLLRESANAIQLRRNFEDSPMLYIPEVYPDYCSEGMMVMERIYGIPVSDVAALEKNGTNMKLLAERGVQVFFTQVFRDSFFHADMHPGNIFVSYEHPENPKYIGIDCGIVGSLNKEDKRYLAENFIAFFNRDYRKVAELHVDSGWVPPDTNVEEFEFAIRTVCEPIFEKPLAEISFGHVLLNLFNTARRFNMEVQPQLVLLQKTLLYVEGVGRQLYPQLDLWKTAKPFLESWIKDQVGIPALVRAFKEKAPFWVEKMPELPELVYDSLRQGKYLQHSVDKIARELQSNHVRQGQSRYFLGIGATLVLSGTFLLVSRPEWGLMPGWLMAGGLIAWFVGWRKTR,failed
12,MTPGTGSALGLLAAAVDAKAVAEIGTGCGVSGIHLLHGMRPDGVLTTVDPEPEHQQFARHAFRAAGFASNRARFIPGRALDVLPRLADAGYDLVFCDGDRLEYLDYLAESLRLLRPGGLVAFEGVFGAGRTIDSGPQPTEVLRVRELLRAVRESQELVPSLLPVGDGLLCAVKR,failed
13,MTPPASSSPCSSSDKRNRAVPSAKALMVWRAGPDGRPLDPSQFPQDPPARRDGDGGGAEAWLNLVHPEEREAVLLLWRRALREGEEFEARYRLHRGLSGYRWALGQGRPLRGDDGEVREWIGTVVDIHDHMEAERTIALSEERLRLALDSADLGVWECTIATNQWWFSEAALRILGCPPDAETSIETVMGAIHSDDLDGLRARWHAARTGRARDRMEGEFRIQRGGGRLGWIACSARLVADDGKAVTRMLGTLRDITKTRLQREKLYHLAHFDPLTGLPNRHEMITRTQATLASGGAAGGAGAILLLDLDGFKEANDTLGQATGDALLKRIAHRLVSSLPADSLIGRVGGDEFLVVVPGVAEQWTATRIADGLYDVLTVPFVIGDRRIPLSGRIGIALAPRDGTSAQDLMTHAELALQETKTISGCVTRFFSPRLHDEARERQDMGLELRRATDNGEFELFYQPQIRLSDRAVVGAEALLRWRHPTRGVMPPAAFLHVLKRGPLAGEVGEWVVAKACADAAGLLNAGSRIRMAVNLFSAQFKAGTVDATVRRSLLESGLPAELLELEITEKVTLDRDEGILTCLKGLRDLGCGVAFDDYGTGYASLSMLKRYPLTRLKIDRAFVQHLAESPKDGAIVRAVLSLGNTFGLSVTAEGIEEEEQEKLLLGQGCDEGQGYFFGRPMPLADFIQFLARVKKNPGEFPTPA,failed
14,MTPQDAQAFEQLLANCADEPIRSPGAIQPHGVLLTLSEPELRIQQISANVEALLGQPAAQVLGQPLEQLLGDTDGQRIREVLQLPRLSDAPPLHLAVNGARFEGLLHRHQGVLMLELEIQLEHLQPQHLKEQTENLGRLLRRLQTAKTLNELYAISVSEIQAMTGYDRVLIYRFEEEGHGQVIAEATRPTMEVFNGLFFPASDIPQQARELYRSNWLRIIPNADYQPVPLLPALRPDTQQALDLSFATLRSVSPIHCQYMKNMGVLSSMSISLLKGDQLWGLISCGNRQPLLVPHELRIACQTIGQVLSLQISAMEALDISRQREEKVTALASLDQAMRDTPDSVFDGLAQVPQLLLDLTQAGGVAIIEDKQLHCFGNCPPQDEIRALHRWLQGTGQAVFASHHLANVYPPAASYQQVASGVLAMTLPKPVDNGVLWFRPEVKENINWSGNPQKPLDLENSDAGLRLRPRTSFEIWKVEMAGISTKWSHGDRFAANDLRRSALEHDLARQVLREQQAVRARDELVAVVSHDLRNPMTVISMLCGMMQKAFSSDGPHTSRRISSAIDTMQQAASRMNNLLEDLLDTSKIEAGRYSIAPQPLDVSQMFEEAYSLLAPLALDKAIDISFHAEPDLRINADPERLFQVLSNLVGNAIKFTPKQGKVGVVAMSDGEQIVFSVRDSGEGIPTDQLPFIFDRYWTMKEGNPNGTGLGLYITQGIIHAHGGKIEAHSEVGKGSEFRFSVPRASL,failed
15,MTPRHQRDLSRRKLLAALAGTAVAVPAAAMGAPHALATVASDNGGAAPRAAGALPLTIVNRTGSFANSSVHLYIVGNEDGKQVRVTSEGTLAPISLADNGADGFTDYAIALSGSGETRLSLPYMSGRIYVALGDKLKLKAVADGNGNAALQYPAGWVESDPNYRVLHDCAEFTHNSAGMFCNTTMVDMFSVPLSIRLTGTKDQTTGTLRDGGRARVFAAVKSVPEFERLVVDDLRVIAPGHGLDAGIFAEDYFAPYIDEVWSTYTGKDLTVTTNAGAFTGRVRGDKLTFTGPASVSFSKPSTRDVFFCDGSLAAPNDGTTGPVAAVLGAGFNRSTLVNDSAQPTTDPAAFYGSALANHYAKAIHAATEDGKAYGFAFDDVADFASYIQDTAPTGINLTLTPF,failed
16,MTPRHQRPLARRKLLVALGGAVVAAPVAAAVAPHALAGIGPDGPAPAAAGALPLTIVNDTGSFGNADVHVYIVGNVDGRQVRVTPDGTVAPVALSDNGADGYTDYAIGLSGSGETKLSLPHLSGRIYVSLGEKLKFKVVADGAGNAALQYPAGWVESDPNYAVLHDCAEFTYNAAGMFCNTTMVDMFSVPLAIRLTGADDRTTGTVRPGGRAAVFEAVRKVEEFAPLVVDDTRVIAPGHGLDAGLFPKDYLAPYIDEVWSTYTGKDLRITTNAGTFTGRVRGDRLTFDGPAQVSFAKPSTRDVLFCDGNLAAPNDGTTGPVAAVLGAGFNRSTLVSSAEQPTTDPATFYGTALTNHYAKAVHAATEDGRAYGFAFDDVADFASYIQDTAPTGIRLTLGAFLEHHHHHH,failed
17,MTPVLSLDMEDPIRFIDENGSFEVVKVGHNLAIHGKKIFDELAKRNLKIILDLKFCDIPSTVERSIKSWDHPAIIGFTVHSCAGYESVERALSATDKHVFVVVKLTSMEGSLEDYMDRIEKLNKLGCDFVLPGPWAKALREKIKGKILVPGIRMEVKADDQKDVVTLEEMKGIANFAVLGREIYLSENPREKIKRIKEMRL,not failed
